Measurements as given in patent US9555076B2, “Neuregulin based methods and compositions for treating cardiovascular diseases” (Zensun (Shanghai) Science & Technology, Co., Ltd., priority 2002, dated 2017).
Where “and” joins values, the source holds several entries; their conditions need not be identical. Identical values can stand only once.

Legend:
[1] = test system: heart failure in rat caused by ligation of coronary artery; experiment: Echocardiography heart function, heart failure by ligation of coronary artery; type: in vivo, SD rat
Procedure: Route of drug administration: in both testing drug group and model group the drug was injected into the tail vein once per day for consecutive 5 days. Echocardiography was performed at the 6th day prior to drug administration, then continuously injected for 5 days. Volume of each drug injection was 0.4 ml/100 g body weight.
After anesthesia with intra-abdominal injection of 100 mg/kg ketamine, the rat was fixed on rat plate in supine position, disinfection of the neck region with bromo-geramine was carried out after depilating. Midline incision was made, trachea was found after separating the anterior cervical muscle, 18 G arterial indwelling trochar was inserted into the trachea at the level of 3-5 tracheal cartilage, took out the stylet, push the plastic cannula 1-2 cm further into the trachea, fixed it for later connection with ventilator for small animal (tidal volume was about […], frequency was 80/min). […] Then closed the chest wall, block the opening of the ventilator to inflate the lungs, forcefully pressed the chest to drive out the air, then sutured the chest muscle and skin. Monitoring the respiration, after spontaneous respiration recovered, withdrawn the ventilator, took the animal back to its cage for breeding. In the pseudo-operation group, only the pericardium was tore open, but without the coronary artery ligation.
Echocardiograph was performed for the operated rat at about 6 days postoperatively, those animals with about 50% reduction of EF value were randomly divided into groups, the EF value of each group was all about 50%, then drug administration began.
Those animals with EF value of about 50% were randomly divided into model group (negative group) and 3-dosage level testing drug groups with 12-13 animals in each group. Route of drug administration in testing drug group and model group was injection into the tail vein, once every day for consecutive 5 days. After echocardiography at the 6th day, another 5 days of consecutive drug administration was carried out. Drug volume of each injection was 0.4 ml/100 g body weight.
Echocardiography was performed under anesthesia with ketamine after the legation and prior to drug administration and at the 6th day, 11th day of drug administration, the major index included: • EF: heart ejection fraction, reflecting ejection function of ventricle; • FS: ventricular short axis shortening rate, reflecting contraction function of ventricle; • LVDd: diastolic maximal inner diameter of left ventricle (cm); • LVDs: systolic minimal inner diameter of left ventricle (cm). 6.3.3.2 Determination of the Content of Plasma Renin-angiotensin-aldosterone

[2] = test system: toxic myocarditis caused by Adriamycin in rat; experiment: Heart size (heart weight/body weight, wall thickness), Adriamycin rat model; type: in vivo, SD rat; conditions: Adriamycin model
Procedure: Heart was extirpated after thoracotomy (auricle should be reserved), the heart weight was measured after dried with absorbent paper, ratio of heart weight/body weight calculated; outer diameter of the heart was measured at ½ site of the vertically standing heart; medium part of the left ventricle was crosswise cut open, maximal thickness of free wall of the left ventricle measured; the heart was fixed with 10% formaldehyde, paraffin embedded and HE stained, observation of the myocardial structure carried out under optic microscope, give out pathologic score.

[3] = 5 μg/kg group, prior to drug administration, (1)
[4] = 5 μg/kg iv 10 qd, 10 days after the drug administration, (II)
[5] = 5 μg/kg iv qd × 5, 5 days after the drug administration, (1)
[6] = 5 μg/kg iv qd × 5, 5 days after the drug administration, (II)
[7] = 5 μg/kg iv qd × 10, 10 days after the drug administration, (1)
[8] = 5 μg/kg, Table 4, titled 10 days after the drug administration, (II)
[9] = 10 μg/kg group, prior to drug administration, (1)
[10] = 10 μg/kg iv 10 qd, 10 days after the drug administration, (II)
[11] = 10 μg/kg iv qd × 5, 5 days after the drug administration, (1)
[12] = 10 μg/kg iv qd × 5, 5 days after the drug administration, (II)
[13] = 10 μg/kg iv qd × 10, 10 days after the drug administration, (1)
[14] = 10 μg/kg, Table 4, titled 10 days after the drug administration, (II)
[15] = 20 μg/kg group, prior to drug administration, (1)
[16] = 20 μg/kg iv 10 qd, 10 days after the drug administration, (II)
[17] = 20 μg/kg iv qd × 5, 5 days after the drug administration, (1)
[18] = 20 μg/kg iv qd × 5, 5 days after the drug administration, (II)
[19] = 20 μg/kg iv qd × 10, 10 days after the drug administration, (1)
[20] = 20 μg/kg, Table 4, titled 10 days after the drug administration, (II)

B1: rhNRG-1 β: Recombinant human neuregulin fragment of 61 amino acid (SEQ ID NO:4), 3 disulfide bonds, expressed in E. coli (protein, listed as Homo sapiens)
chain: SHLVKCAEKEKTFCVNGGECFMVKDLSNPSRYLCKCPNEFTGDRCQNYVMASFYKAEELYQ
modifications: disulfide (positions not given here)
For B1, the EF [1, 3] was 49.3%, the FS [1, 3] was 22.0% and the LVDd [1, 3] was 0.761 cm. The LVDs [1, 3] was 0.596 cm, the EF [1, 4] was 57.90% and the FS [1, 4] was 29.26%. The LVDd [1, 4] was 0.70 cm, the LVDs [1, 4] was 0.53 cm and the EF [1, 5] was 62.9±8.4% and 62.90%. The FS [1, 5] was 30.3±6.1% and 30.32%, the LVDd [1, 5] was 0.73 cm and the LVDs [1, 5] was 0.54 cm. For the same molecule, the EF [1, 6] was 56.76%, the FS [1, 6] was 28.35% and the LVDd [1, 6] was 0.74 cm. For the same molecule, the LVDs [1, 6] was 0.58 cm, the EF [1, 7] was 59.2±12.4% and 59.2% and the FS [1, 7] was 28.4±8.6% and 28.4%. For the same molecule, the LVDd [1, 7] was 0.72 cm, the LVDs [1, 7] was 0.55 cm and the EF value ([1]; 5 μg/kg, 5-day after drug administration and 35-day after drug withdrawal) was 69.9 ± 28.6%. The EF value ([1]; 5 μg/kg, 5-day after drug administration, long-term monitoring) was 75.8 ± 15.3%, the EF [1, 8] was 50.81% and the FS [1, 8] was 22.83%. For the same molecule, the LVDd [1, 8] was 0.66 cm, the LVDs [1, 8] was 0.51 cm and the EF [1, 9] was 49.5%. It also gave an FS [1, 9] of 22.1%, an LVDd [1, 9] of 0.709 cm and an LVDs [1, 9] of 0.555 cm. For the same molecule, the EF [1, 10] was 66.54%, the FS [1, 10] was 34.28% and the LVDd [1, 10] was 0.68 cm. For the same molecule, the LVDs [1, 10] was 0.49 cm, the EF [1, 11] was 64.4±12.9% and 64.3±12.8% and 64.35% and the FS [1, 11] was 32.0±9.5% and 32.01%. It also gave an LVDd [1, 11] of 0.71 cm, an LVDs [1, 11] of 0.51 cm and an EF [1, 12] of 56.51%. For the same molecule, the FS [1, 12] was 26.53%, the LVDd [1, 12] was 0.72 cm and the LVDs [1, 12] was 0.54 cm. The EF [1, 13] was 61.4±15.0% and 61.4%, the FS [1, 13] was 30.3±10.4% and 30.3% and the LVDd [1, 13] was 0.7 cm. The LVDs [1, 13] was 0.51 cm, the EF value ([1]; 10 μg/kg, 5-day after drug administration and 35-day after drug withdrawal) was 63.8 ± 23.8% and the EF value ([1]; 10 μg/kg, 5-day after drug administration, long-term monitoring) was 77.3 ± 11.6%. It also gave an EF [1, 14] of 51.67%, an FS [1, 14] of 23.27% and an LVDd [1, 14] of 0.64 cm. It also gave an LVDs [1, 14] of 0.49 cm, an EF value ([1]; 10 μg/kg, after ligation prior to drug administration, long-term monitoring) of 52.2 ± 12.8% and an EF [1, 15] of 49.3%. For the same molecule, the FS [1, 15] was 21.7%, the LVDd [1, 15] was 0.730 cm and the LVDs [1, 15] was 0.575 cm. For the same molecule, the EF [1, 16] was 70.22%, the FS [1, 16] was 36.49% and the LVDd [1, 16] was 0.65 cm. For the same molecule, the LVDs [1, 16] was 0.42 cm, the EF [1, 17] was 71.1±12.0% and 71.07% and the FS [1, 17] was 36.9±9.7% and 36.88%. For the same molecule, the LVDd [1, 17] was 0.70 cm, the LVDs [1, 17] was 0.46 cm and the EF [1, 18] was 65.47%. For the same molecule, the FS [1, 18] was 34.23%, the LVDd [1, 18] was 0.68 cm and the LVDs [1, 18] was 0.46 cm. The EF [1, 19] was 75.7±10.8% and 75.7%, the FS [1, 19] was 41.3±11.0% and 41.3% and the LVDd [1, 19] was 0.6 cm. The LVDs [1, 19] was 0.5 cm, the EF value ([1]; 20 μg/kg, 5-day after drug administration, long-term monitoring) was 79.2 ± 4.7 % and the EF [1, 20] was 52.29%. The FS [1, 20] was 23.89%, the LVDd [1, 20] was 0.74 cm and the LVDs [1, 20] was 0.56 cm. For the same molecule, the EF value ([1]; 20 μg/kg, after ligation prior to drug administration, long-term monitoring) was 52.4 ± 13.8%, the Heart weight/body weight ([2]; 10 μg/kg iv qd × 10 d, (I)) was 0.00301 ± 0.0002 and the “Left ventricle wall thickness” value ([2]; 10 μg/kg iv qd × 10 d, (I)) was 1.773 ± 0.115 mm. The Heart weight/body weight ([2]; 10 μg/kg iv qd × 10 d, (II)) was 0.00307 ± 0.000, the “Left ventricular wall thickness” value ([2]; 10 μg/kg iv qd × 10 d, (II)) was 2.18 ± 0.21 mm and the Heart weight/body weight ([2]; 20 μg/kg iv qd × 10 d, (I)) was 0.0032 ± 0.0001. The “Left ventricle wall thickness” value ([2]; 20 μg/kg iv qd × 10 d, (I)) was 1.789 ± 0.133 mm, the Heart weight/body weight ([2]; 20 μg/kg iv qd × 10 d, (II)) was 0.00303 ± 0.000 and the “Left ventricular wall thickness” value ([2]; 20 μg/kg iv qd × 10 d, (II)) was 2.15 ± 0.24 mm. For the same molecule, the Heart weight/body weight ([2]; 40 μg/kg iv qd × 10, (II)) was 0.00297 ± 0.000, the “Left ventricular wall thickness” value ([2]; 40 μg/kg iv qd × 10, (II)) was 2.06 ± 0.2 mm and the Heart weight/body weight ([2]; 40 μg/kg iv qd × 10 d, (I)) was 0.0031 ± 0.0002. The “Left ventricle wall thickness” value ([2]; 40 μg/kg iv qd × 10 d, (I)) was 1.813 ± 0.12 mm.
